Assay results from patent US20110151450.
Positions count from the first letter of the chain named.

Assays:
Assay in all cases: cleavage_in_vitro
[1] = system: T1, ApoI-HF T77A/T96A (Arthrobacter protophormiae); details: NEB4, relative activity 50%
T1 sequence: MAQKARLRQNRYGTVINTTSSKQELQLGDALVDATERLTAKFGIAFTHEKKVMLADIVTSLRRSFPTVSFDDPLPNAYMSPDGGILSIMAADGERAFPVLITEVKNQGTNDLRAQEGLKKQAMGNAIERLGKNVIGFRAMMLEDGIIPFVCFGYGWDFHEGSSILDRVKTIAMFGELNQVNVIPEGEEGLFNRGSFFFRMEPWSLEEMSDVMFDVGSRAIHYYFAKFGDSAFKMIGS

[2] = molecular target: T2, BglII-HF N208A (Bacillus globigii) (UniProt Q45488); details: NEB4, relative activity 25%
T2 sequence: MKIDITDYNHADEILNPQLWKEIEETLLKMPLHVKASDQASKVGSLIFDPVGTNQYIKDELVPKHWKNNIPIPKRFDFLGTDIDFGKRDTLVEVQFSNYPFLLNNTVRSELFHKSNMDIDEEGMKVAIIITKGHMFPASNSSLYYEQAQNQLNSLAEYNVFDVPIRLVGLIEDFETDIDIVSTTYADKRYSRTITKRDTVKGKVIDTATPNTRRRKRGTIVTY

[3] = molecular target: T3, BglII-WT (Bacillus globigii) (UniProt Q45488); details: NEB4, relative activity 6.3%
T3 sequence: T2 sequence with A208N

[4] = system: T4, BmtI-HF S50A (Bacillus megaterium); details: NEB4, relative activity 100%
T4 sequence: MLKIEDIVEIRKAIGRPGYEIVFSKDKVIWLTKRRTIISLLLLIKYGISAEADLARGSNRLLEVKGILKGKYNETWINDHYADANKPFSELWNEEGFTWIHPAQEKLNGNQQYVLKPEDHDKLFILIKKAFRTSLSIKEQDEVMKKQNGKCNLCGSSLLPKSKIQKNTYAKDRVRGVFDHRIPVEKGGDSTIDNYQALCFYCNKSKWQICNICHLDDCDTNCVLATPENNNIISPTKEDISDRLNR

[5] = system: T5, BmtI-WT (Bacillus megaterium); details: NEB4, relative activity 100%
T5 sequence: T4 sequence with A50S

[6] = system: T6, BsaWI-HF Q261A (Bacillus stearothermophilus); details: NEB4, relative activity 100%
T6 sequence: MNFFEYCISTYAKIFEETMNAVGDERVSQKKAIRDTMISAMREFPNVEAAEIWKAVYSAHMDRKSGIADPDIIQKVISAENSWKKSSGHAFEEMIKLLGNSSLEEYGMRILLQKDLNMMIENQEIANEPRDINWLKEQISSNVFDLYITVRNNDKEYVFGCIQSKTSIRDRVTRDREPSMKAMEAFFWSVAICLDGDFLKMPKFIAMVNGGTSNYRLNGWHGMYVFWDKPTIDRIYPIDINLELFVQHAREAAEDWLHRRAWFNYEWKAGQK

[7] = system: T7, PmeI-HF E86A (Pseudomonas mendocina); details: NEB4, relative activity 100%
T7 sequence: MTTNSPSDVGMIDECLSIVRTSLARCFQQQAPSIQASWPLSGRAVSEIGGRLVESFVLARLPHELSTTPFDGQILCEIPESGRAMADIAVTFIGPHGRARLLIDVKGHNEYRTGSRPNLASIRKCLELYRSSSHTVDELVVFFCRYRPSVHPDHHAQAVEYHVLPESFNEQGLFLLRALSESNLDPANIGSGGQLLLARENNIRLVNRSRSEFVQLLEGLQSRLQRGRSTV

[8] = system: T8, PvuI-WT (Proteus vulgaris); details: NEB4, relative activity 12.5%
T8 sequence: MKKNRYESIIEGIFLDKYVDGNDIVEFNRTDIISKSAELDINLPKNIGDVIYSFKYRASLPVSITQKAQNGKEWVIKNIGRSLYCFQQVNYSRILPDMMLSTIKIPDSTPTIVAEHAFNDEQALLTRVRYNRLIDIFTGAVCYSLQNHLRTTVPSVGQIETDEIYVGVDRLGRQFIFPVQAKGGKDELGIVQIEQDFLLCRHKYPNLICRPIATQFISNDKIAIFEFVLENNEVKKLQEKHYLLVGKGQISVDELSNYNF

With pXba plasmid as the substance, how does the activity (fidelity index) [1] read?
Its activity (fidelity index) is greater than 2000.

What about the activity (fidelity index) [2] of the same substance?
Its activity (fidelity index) is greater than 32000.

What about the activity (fidelity index) [3] of the same substance?
The activity (fidelity index) was 16.

What about the activity (fidelity index) [4] of the same substance?
The activity (fidelity index) was greater than 1e+06.

What about the activity (fidelity index) [5] of the same substance?
The activity (fidelity index) was 16.

What about the activity (fidelity index) [6] of the same substance?
The activity (fidelity index) was greater than 4000.

What about the activity (fidelity index) [7] of the same substance?
Its activity (fidelity index) is greater than 8000.

And the activity (fidelity index) [8]?
The activity (fidelity index) was 32.
